Assay [1] concerns the target T1, recombinant human integrin α5β1 (R&D) (human, UniProt P08648 42-995; P05556 21-728).
T1 construct: Bought recombinant heterodimer (R&D); It was used coated on plates and in solution in the phage ELISA, and as analyte or immobilized in BIAcore; also called alpha5beta1; a5b1
Put plainly: phage competition ELISA IC50 of the Fab-phage against human integrin α5β1, relative to parental h7H5.v1; down arrow = loss, up arrow = improvement of binding affinity. As for the experimental part: Substitutions with other resides at various positions was achieved by Kunkel mutagenesis using a separate oligonucleotide for each position. […] The IC50 values for binding affinity were determined by phage competition ELISA in FIG. 6. Two variants, h7H5.v2 and h7H5.v3 as indicated were selected to include glycine substitution at position 65 of CDR-H2, cloned into hIgG1 vector, and evaluated binding affinities using BIAcore instrument.
(§1) MAXISORP™ microtiter plates were coated with recombinant human integrin α5β1 (R&D) at 5 μg/ml in PBS overnight and then blocked with PBST buffer (0.5% BSA and 0.05% Tween 20 in PBS) for an hour at room temperature. Phage from culture supernatants were incubated with serially diluted human integrin α5β1 in PBST buffer in a tissue-culture microtiter plate for an hour, after which 80 μl of the mixture was transferred to the target-coated wells for 15 minutes to capture unbound phage. The plate was washed with PBT buffer (0.05% Tween 20 in PBS), and HRP-conjugated anti-M13 (Amersham Pharmacia Biotech) was added (1:5000 in PBST buffer) for 40 minutes. The plate was washed with PBT buffer and developed by adding tetramethylbenzidine substrate (Kirkegaard and Perry Laboratories, Gaithersburg, Md.). The absorbance at 450 nm was plotted as a function of target concentration in solution to determine phage IC₅₀.

Assay [2] has as its target T1, recombinant human integrin α5β1 (R&D). Put plainly: phage competition ELISA: Fab-phage incubated with serially diluted soluble human integrin α5β1, unbound phage captured on plate-coated integrin α5β1, anti-M13-HRP, A450. Here is the method:
Mutation at each position was generated by Kunkel mutagenesis using a separate oligonucleotide. Phage competition ELISA was utilized for evaluating all of the variants. […] Binding affinities (IC50) against human integrin α5β1 was determined.
as §1
Background: ELISA stands for enzyme-linked immunosorbent assay.

T1 sequence (P08648 42-995 limits assumed, chain 1 of 2): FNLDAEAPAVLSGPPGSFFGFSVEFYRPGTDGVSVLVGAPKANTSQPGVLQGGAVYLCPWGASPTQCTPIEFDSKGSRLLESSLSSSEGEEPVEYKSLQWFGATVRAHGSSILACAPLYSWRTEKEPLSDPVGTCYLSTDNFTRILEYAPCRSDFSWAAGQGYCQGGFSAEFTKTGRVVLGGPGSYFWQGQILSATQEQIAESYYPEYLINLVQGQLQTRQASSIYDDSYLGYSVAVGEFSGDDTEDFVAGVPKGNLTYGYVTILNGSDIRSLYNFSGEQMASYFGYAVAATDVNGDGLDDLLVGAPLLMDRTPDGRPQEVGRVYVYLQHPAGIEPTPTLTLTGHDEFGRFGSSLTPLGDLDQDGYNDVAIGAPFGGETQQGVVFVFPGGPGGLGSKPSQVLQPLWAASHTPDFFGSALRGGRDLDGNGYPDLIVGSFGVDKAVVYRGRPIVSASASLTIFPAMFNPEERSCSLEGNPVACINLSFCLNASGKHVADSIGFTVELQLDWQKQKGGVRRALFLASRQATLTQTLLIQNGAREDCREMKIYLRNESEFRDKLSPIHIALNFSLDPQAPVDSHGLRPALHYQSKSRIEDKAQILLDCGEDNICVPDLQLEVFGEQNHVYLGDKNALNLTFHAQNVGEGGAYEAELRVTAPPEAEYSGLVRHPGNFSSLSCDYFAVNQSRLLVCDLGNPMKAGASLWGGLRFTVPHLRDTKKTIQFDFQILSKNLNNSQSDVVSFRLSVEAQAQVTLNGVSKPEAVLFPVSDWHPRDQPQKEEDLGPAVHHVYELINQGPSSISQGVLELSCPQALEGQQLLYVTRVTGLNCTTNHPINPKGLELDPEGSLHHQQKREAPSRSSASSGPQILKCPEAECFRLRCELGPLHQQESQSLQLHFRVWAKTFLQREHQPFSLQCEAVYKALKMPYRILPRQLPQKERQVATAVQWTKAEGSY
T1 sequence (P05556 21-728 limits assumed, chain 2 of 2): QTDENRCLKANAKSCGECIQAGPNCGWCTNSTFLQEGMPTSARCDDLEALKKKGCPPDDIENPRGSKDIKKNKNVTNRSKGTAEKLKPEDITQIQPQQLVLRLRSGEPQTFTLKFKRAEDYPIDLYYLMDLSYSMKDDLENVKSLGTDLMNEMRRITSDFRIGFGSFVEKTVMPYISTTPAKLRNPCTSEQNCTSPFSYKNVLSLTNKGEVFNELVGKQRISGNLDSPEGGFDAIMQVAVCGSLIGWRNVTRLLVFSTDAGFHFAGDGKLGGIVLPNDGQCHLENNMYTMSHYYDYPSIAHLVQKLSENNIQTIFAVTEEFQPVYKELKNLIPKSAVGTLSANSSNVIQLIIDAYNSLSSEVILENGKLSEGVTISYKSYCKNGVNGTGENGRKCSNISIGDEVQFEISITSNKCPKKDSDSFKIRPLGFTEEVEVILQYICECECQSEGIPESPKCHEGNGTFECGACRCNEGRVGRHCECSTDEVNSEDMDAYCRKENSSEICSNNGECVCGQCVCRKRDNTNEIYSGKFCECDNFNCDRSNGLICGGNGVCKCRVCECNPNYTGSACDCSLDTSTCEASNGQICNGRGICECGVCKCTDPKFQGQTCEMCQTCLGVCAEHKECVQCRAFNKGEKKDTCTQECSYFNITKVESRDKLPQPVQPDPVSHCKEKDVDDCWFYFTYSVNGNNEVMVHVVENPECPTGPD

B1: CDR-L1:N28S (Fab, V domains shown)
VH: EVQLVESGGGLVQPGGSLRLSCAASGYTFTDYYLYWVRQAPGKGLEWIGGISPSNGGTTFNDNFENKATLSVDKSKNTAYLQMNSLRAEDTAVYYCTRDAYGDWYFDVWGQGT
VL: DIQMTQSPSSLSASVGDRVTITCKASQSVGSDVAWYQQKPGKAPKTLIYSTSYRYSGVPSRFSGSGSGTDFTLTISSLQPEDFATYYCQQYNSYPFTFGQGTKVEIK
notes: Fab-phage; also called h7H5.v1 single point mutant, light chain N28S, Fab-phage; copies: 1 + 1
As to B1, the “Relative Fold to h7H5.v1” value in assay [1] came to 1.3 fold.

B2: CDR-L3:N92A (Fab, V domains shown)
VH: EVQLVESGGGLVQPGGSLRLSCAASGYTFTDYYLYWVRQAPGKGLEWIGGISPSNGGTTFNDNFENKATLSVDKSKNTAYLQMNSLRAEDTAVYYCTRDAYGDWYFDVWGQGT
VL: DIQMTQSPSSLSASVGDRVTITCKASQNVGSDVAWYQQKPGKAPKTLIYSTSYRYSGVPSRFSGSGSGTDFTLTISSLQPEDFATYYCQQYASYPFTFGQGTKVEIK
notes: Fab-phage; also called h7H5.v1 single point mutant, light chain N92A, Fab-phage
Consider B2, for which the “Relative Fold to h7H5.v1” value in assay [1] came to 1 fold.

B3: h7H5.v2 framework modification clone, heavy chain A67F, displayed on phage as a monovalent Fab (Fab, name in Kabat numbering, V domains shown)
VH: EVQLVESGGGLVQPGGSLRLSCAASGYTFTDYYLYWVRQAPGKGLEWIGGISPSSGGTTFADAFEGKFTLSVDKSKNTAYLQMNSLRAEDTAVYYCTRDAYGDWYFDVWGQGT
VL: DIQMTQSPSSLSASVGDRVTITCKASQSVGSDVAWYQQKPGKAPKTLIYSTSYRYSGVPSRFSGSGSGTDFTLTISSLQPEDFATYYCQQYSSYPFTFGQGTKVEIKR
notes: Single mutation in h7H5.v2 made by Kunkel mutagenesis; monovalent Fab on phage; The position is Kabat and may be shifted from the count on the entry; also called heavy chain position 67 (A67F)
Consider B3, for which the binding result in assay [2] is reported as “binds”.

B4: h7H5.v2 framework modification clone, heavy chain I48V, displayed on phage as a monovalent Fab (Fab, name in Kabat numbering, V domains shown)
VH: EVQLVESGGGLVQPGGSLRLSCAASGYTFTDYYLYWVRQAPGKGLEWVGGISPSSGGTTFADAFEGKATLSVDKSKNTAYLQMNSLRAEDTAVYYCTRDAYGDWYFDVWGQGT
VL: DIQMTQSPSSLSASVGDRVTITCKASQSVGSDVAWYQQKPGKAPKTLIYSTSYRYSGVPSRFSGSGSGTDFTLTISSLQPEDFATYYCQQYSSYPFTFGQGTKVEIKR
notes: Single mutation in h7H5.v2 made by Kunkel mutagenesis; monovalent Fab on phage; also called heavy chain position 48 (I48V)
Regarding B4, the binding result in assay [2] is on record as “binds”.

B5: CDR-L3:N92S (Fab, V domains shown)
VH: EVQLVESGGGLVQPGGSLRLSCAASGYTFTDYYLYWVRQAPGKGLEWIGGISPSNGGTTFNDNFENKATLSVDKSKNTAYLQMNSLRAEDTAVYYCTRDAYGDWYFDVWGQGT
VL: DIQMTQSPSSLSASVGDRVTITCKASQNVGSDVAWYQQKPGKAPKTLIYSTSYRYSGVPSRFSGSGSGTDFTLTISSLQPEDFATYYCQQYSSYPFTFGQGTKVEIK
notes: Fab-phage; also called h7H5.v1 single point mutant, light chain N92S, Fab-phage; copies: 1 + 1
For the molecule B5, the “Relative Fold to h7H5.v1” value in assay [1] came out at 1 fold.

B6: h7H5.v2 framework modification clone, light chain T46L, displayed on phage as a monovalent Fab (Fab, name in Kabat numbering, V domains shown)
VH: EVQLVESGGGLVQPGGSLRLSCAASGYTFTDYYLYWVRQAPGKGLEWIGGISPSSGGTTFADAFEGKATLSVDKSKNTAYLQMNSLRAEDTAVYYCTRDAYGDWYFDVWGQGT
VL: DIQMTQSPSSLSASVGDRVTITCKASQSVGSDVAWYQQKPGKAPKLLIYSTSYRYSGVPSRFSGSGSGTDFTLTISSLQPEDFATYYCQQYSSYPFTFGQGTKVEIKR
notes: Single mutation in h7H5.v2 made by Kunkel mutagenesis; monovalent Fab on phage; also called light chain position 46 (T46L)
On to B6, for which the binding result in assay [2] was “binds”.

B7: h7H5.v2 framework modification clone, heavy chain K66R, displayed on phage as a monovalent Fab (Fab, name in Kabat numbering, V domains shown)
VH: EVQLVESGGGLVQPGGSLRLSCAASGYTFTDYYLYWVRQAPGKGLEWIGGISPSSGGTTFADAFEGRATLSVDKSKNTAYLQMNSLRAEDTAVYYCTRDAYGDWYFDVWGQGT
VL: DIQMTQSPSSLSASVGDRVTITCKASQSVGSDVAWYQQKPGKAPKTLIYSTSYRYSGVPSRFSGSGSGTDFTLTISSLQPEDFATYYCQQYSSYPFTFGQGTKVEIKR
notes: Single mutation in h7H5.v2 made by Kunkel mutagenesis; monovalent Fab on phage; The position is Kabat and may be shifted from the count on the entry; also called heavy chain position 66 (K66R)
Consider B7, for which, in assay [2], the binding result is “binds”.

B8: h7H5.v2 framework modification clone, heavy chain L69I, displayed on phage as a monovalent Fab (Fab, name in Kabat numbering, V domains shown)
VH: EVQLVESGGGLVQPGGSLRLSCAASGYTFTDYYLYWVRQAPGKGLEWIGGISPSSGGTTFADAFEGKATISVDKSKNTAYLQMNSLRAEDTAVYYCTRDAYGDWYFDVWGQGT
VL: DIQMTQSPSSLSASVGDRVTITCKASQSVGSDVAWYQQKPGKAPKTLIYSTSYRYSGVPSRFSGSGSGTDFTLTISSLQPEDFATYYCQQYSSYPFTFGQGTKVEIKR
notes: Single mutation in h7H5.v2 made by Kunkel mutagenesis; monovalent Fab on phage; The position is Kabat and may be shifted from the count on the entry; also called heavy chain position 69 (L69I)
As to B8, the “IC50 (read off the curve)” value in assay [2] was around 0.05 nM.

B9: h7H5.v2 framework modification clone, heavy chain T30S, displayed on phage as a monovalent Fab (Fab, name in Kabat numbering, V domains shown)
VH: EVQLVESGGGLVQPGGSLRLSCAASGYTFSDYYLYWVRQAPGKGLEWIGGISPSSGGTTFADAFEGKATLSVDKSKNTAYLQMNSLRAEDTAVYYCTRDAYGDWYFDVWGQGT
VL: DIQMTQSPSSLSASVGDRVTITCKASQSVGSDVAWYQQKPGKAPKTLIYSTSYRYSGVPSRFSGSGSGTDFTLTISSLQPEDFATYYCQQYSSYPFTFGQGTKVEIKR
notes: Single mutation in h7H5.v2 made by Kunkel mutagenesis; monovalent Fab on phage; also called heavy chain position 30 (T30S)
Consider B9, for which the binding result in assay [2] is recorded as “binds”.

Values taken from patent US20090098112A1 (Genentech, published 2009).
